The results in this text go back to patent publication US20030125523A1 (VEGENICS, published 2003).

The target of assay [1] is NP-1 expressed on PAE-NP-1 cells (UniProt O14786). The assay is described as follows: competition of 125I-hVEGF165 (1 ng/ml) binding to PAE-NP-1 cells by 20 µg/ml GST fusion.
Assay [2] has as its target T1, soluble Neuropilin-1-Ig fusion protein (extracellular domain of mouse NP-1 fused to the human IgG Fc-part) (mouse; human, UniProt P97333 22-856).
T1 construct: extracellular domain; Made in transfected 293T cells and captured on protein A sepharose; also called NP-1-Ig; soluble NP-1-Ig; not shown: human IgG Fc-part encoded by the pIgplus vector (Ingenius)
T1 sequence (looked up): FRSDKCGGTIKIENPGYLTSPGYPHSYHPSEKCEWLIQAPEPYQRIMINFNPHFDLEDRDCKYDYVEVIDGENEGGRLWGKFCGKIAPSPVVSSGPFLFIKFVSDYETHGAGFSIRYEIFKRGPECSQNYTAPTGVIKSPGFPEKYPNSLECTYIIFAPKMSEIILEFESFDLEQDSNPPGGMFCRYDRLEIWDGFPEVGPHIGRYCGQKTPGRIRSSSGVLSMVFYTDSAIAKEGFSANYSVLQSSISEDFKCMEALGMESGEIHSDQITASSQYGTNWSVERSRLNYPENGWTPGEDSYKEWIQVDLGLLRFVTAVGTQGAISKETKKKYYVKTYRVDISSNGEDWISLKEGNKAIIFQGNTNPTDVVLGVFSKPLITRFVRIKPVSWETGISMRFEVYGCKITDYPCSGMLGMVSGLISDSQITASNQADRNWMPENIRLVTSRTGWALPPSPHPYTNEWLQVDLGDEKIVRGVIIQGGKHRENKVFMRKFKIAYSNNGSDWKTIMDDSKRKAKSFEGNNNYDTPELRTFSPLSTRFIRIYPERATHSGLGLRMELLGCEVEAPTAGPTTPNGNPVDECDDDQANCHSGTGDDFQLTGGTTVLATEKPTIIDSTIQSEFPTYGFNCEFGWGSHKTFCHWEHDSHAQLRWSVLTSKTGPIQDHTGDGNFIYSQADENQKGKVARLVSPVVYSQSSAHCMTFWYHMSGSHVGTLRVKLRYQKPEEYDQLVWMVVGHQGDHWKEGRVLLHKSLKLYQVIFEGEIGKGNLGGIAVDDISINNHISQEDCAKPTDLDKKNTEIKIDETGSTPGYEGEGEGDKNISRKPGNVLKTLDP
The assay is described as follows: precipitation of 35S-labelled growth factor with NP-1-Ig on protein A sepharose, SDS-PAGE (FIG. 7).

Assay [3] deals with T1, soluble Neuropilin-1-Ig fusion protein …. The assay is described as follows: precipitation of 35S-labelled growth factor with NP-1-Ig on protein A sepharose, SDS-PAGE (FIG. 6).
Assay [4] shares this target. The assay is described as follows: precipitation of 35S-labelled growth factor from conditioned medium with NP-1-Ig on protein A sepharose, SDS-PAGE (FIG. 3). As to the method: 293-T or 293EBNA cells were similarly transfected with plasmids encoding hVEGF₁₆₅, mVEGF-B₁₆₇, mVEGF-B₁₈₆, hVEGF-C, hVEGF-D, PlGF-1 or PlGF-2, and the transfected cells were metabolically labeled 24 hours post transfection with 100 μCi/ml Pro-mix TML-³⁵S (Amersham) for 6 to 7 hours. 10 μg/ml heparin was added to the labeling medium to facilitate the release of the heparin sulphate-binding growth factors from the cell surface and pericellular matrix. Metabolically labeled media, with the exception of the medium used for VEGF transfection, were immunodepleted of endogenous VEGF by immunoprecipitating with VEGF antibody for two hours. Similar amounts of media containing the metabolically labeled growth factors were then used for immunoprecipitation or for receptor binding analysis. Growth factors were incubated for 3 hours at room temperature with receptor-Igs in binding buffer (phosphate buffered saline (PBS), 0.5% BSA, 0.2% Tween 20). The sepharose beads were then washed once with ice cold binding buffer and three times with PBS and analyzed by 15% SDS-PAGE.
Immunoprecipitations were carried out using specific antibodies against VEGF₁₆₅, VEGF-B₁₆₇, VEGF-B₁₈₆, VEGF-C, VEGF-D and protein A sepharose. […] In contrast, no significant binding was detected between NP-1-Ig and hVEGF-D or PlGF-1. […]

Assay [5] shares this target. Put plainly: precipitation of 35S-labelled growth factor from conditioned medium with NP-1-Ig on protein A sepharose, SDS-PAGE.

Chain of NP-1 expressed on PAE-NP-1 cells (O14786 22-923 limits assumed): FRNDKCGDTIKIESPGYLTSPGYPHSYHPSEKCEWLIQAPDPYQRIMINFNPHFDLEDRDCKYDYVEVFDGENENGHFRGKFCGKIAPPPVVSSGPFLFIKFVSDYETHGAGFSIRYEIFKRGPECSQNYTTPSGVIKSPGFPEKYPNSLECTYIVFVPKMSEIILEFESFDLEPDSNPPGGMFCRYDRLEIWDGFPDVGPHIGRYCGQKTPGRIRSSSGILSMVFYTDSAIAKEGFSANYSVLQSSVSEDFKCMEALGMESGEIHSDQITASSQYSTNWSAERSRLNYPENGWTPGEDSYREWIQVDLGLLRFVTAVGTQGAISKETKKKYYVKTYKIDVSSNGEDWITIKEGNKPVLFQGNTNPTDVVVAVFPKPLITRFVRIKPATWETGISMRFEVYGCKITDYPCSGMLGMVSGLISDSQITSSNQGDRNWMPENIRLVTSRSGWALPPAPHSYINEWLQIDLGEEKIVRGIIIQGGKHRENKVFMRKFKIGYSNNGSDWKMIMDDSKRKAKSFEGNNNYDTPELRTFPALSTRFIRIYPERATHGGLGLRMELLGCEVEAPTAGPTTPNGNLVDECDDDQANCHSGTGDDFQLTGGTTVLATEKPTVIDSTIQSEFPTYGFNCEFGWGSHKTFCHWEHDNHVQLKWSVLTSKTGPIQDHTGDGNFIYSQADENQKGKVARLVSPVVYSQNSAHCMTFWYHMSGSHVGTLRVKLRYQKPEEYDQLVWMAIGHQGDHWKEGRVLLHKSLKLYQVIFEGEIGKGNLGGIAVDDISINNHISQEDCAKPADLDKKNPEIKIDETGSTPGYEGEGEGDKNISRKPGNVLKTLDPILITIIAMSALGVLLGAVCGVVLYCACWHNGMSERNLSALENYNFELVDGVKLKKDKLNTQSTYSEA

The molecule “GST-VEGF-B167 exon 6B fusion protein (GST fused to amino acids 117-161 of mVEGF-B167) (from UniProt P49766 117-161)” had a percent competition in assay [1] of 50%.

B1: human VEGF-C (full length) (ligand, UniProt P49767 32-419, looked up)
chain: FESGLDLSDAEPDAGEATAYASKDLEEQLRSVSSVDELMTVLYPEYWKMYKCQLRKGGWQHNREQANLNSRTEETIKFAAAHYNTEILKSIDNEWRKTQCMPREVCIDVGKEFGVATNTFFKPPCVSVYRCGGCCNSEGLQCMNTSTSYLSKTLFEITVPLSQGPKPVTISFANHTSCRCMSKLDVYRQVHSIIRRSLPATLPQCQAANKTCPTNYMWNNHICRCLAQEDFMFSSDAGDDSTDGFHDICGPNKELDEETCQCVCRAGLRPASCGPHKELDRNSCQCVCKNKLFPSQCGANREFDENTCQCVCKRTCPRNQPLNPGKCACECTESPQKCLLKGKKFHHQTCSCYRRPCTNRQKACEPGFSYSEEVCRCVPSYWKRPQMS
notes: 35S labelled, from conditioned medium of transfected cells; also called hVEGF-C; full length VEGF-C
For B1, the binding result in assay [2] is on record as “binds”.

B2: mVEGF-BkEx1-5 (ligand, mouse, UniProt P49766 22-136, looked up)
chain: PVSQFDGPSHQKKVVPWIDVYARATCQPREVVVPLSMELMGNVVKQLVPSCVTVQRCGGCCPDDGLECVPTGQHQVRMQILMIQYPSSQLGEMSLEEHSQCECRPKKKESAVKPD
notes: domain: exons 1-5; also called murine VEGF-BkEx1-5; construct containing exons 1-5 of murine VEGF-B
For the molecule B2, the binding result in assay [3] is recorded as “no binding”.

B3: PlGF-1 (ligand, UniProt P49763-2 19-149, looked up)
chain: LPAVPPQQWALSAGNGSSEVEVVPFQEVWGRSYCRALERLVDVVSEYPSEVEHMFSPSCVSLLRCTGCCGDENLHCVPVETANVTMQLLKIRSGDRPSYVELTFSQHVRCECRPLREKMKPERCGDAVPRR
notes: 35S labelled, from conditioned medium of transfected cells; also called placenta growth factor isoform 1
With B3, the binding result in assay [4] is “no binding”.

B4: mouse VEGF-B167 (ligand, UniProt P49766-2 22-188, looked up)
chain: PVSQFDGPSHQKKVVPWIDVYARATCQPREVVVPLSMELMGNVVKQLVPSCVTVQRCGGCCPDDGLECVPTGQHQVRMQILMIQYPSSQLGEMSLEEHSQCECRPKKKESAVKPDSPRILCPPCTQRRQRPDPRTCRCRCRRRRFLHCQGRGLELNPDTCRCRKPRK
notes: 35S metabolically labelled, from conditioned medium of transfected cells; also called mVEGF-B167
For B4, the binding result in assay [5] is on record as “binds”.

B5: human VEGF165 (ligand, UniProt P15692-4 27-191, looked up)
chain: APMAEGGGQNHHEVVKFMDVYQRSYCHPIETLVDIFQEYPDEIEYIFKPSCVPLMRCGGCCNDEGLECVPTEESNITMQIMRIKPHQGQHIGEMSFLQHNKCECRPKKDRARQENPCGPCSERRKHLFVQDPQTCKCSCKNTDSRCKARQLELNERTCRCDKPRR
notes: also called hVEGF165; rhVEGF165
For the molecule B5, in assay [5], the binding result is “binds”.
